The results in this text go back to paper PMC4597100.

For experiment [1], the target named is MLL1(3745–3969) SET domain construct containing the WIN motif, AviTag, biotinylated (human) (UniProt Q03164).
The target of experiment [2] is MLL4(5308–5537) SET domain construct containing the WIN motif, AviTag, biotinylated (human) (UniProt O14686).

Chain of UniProt Q03164 (Q03164 3745-3969): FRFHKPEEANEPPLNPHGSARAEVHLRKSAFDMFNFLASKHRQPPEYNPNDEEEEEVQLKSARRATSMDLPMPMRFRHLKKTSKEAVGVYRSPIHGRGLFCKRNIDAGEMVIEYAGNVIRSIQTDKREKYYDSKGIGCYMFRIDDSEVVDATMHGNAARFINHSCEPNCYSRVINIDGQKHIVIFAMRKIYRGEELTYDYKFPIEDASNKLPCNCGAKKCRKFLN

Take ARTKQTARKSTGGKAPRY [histone H3 amino terminal peptide substrate (…-Y), unmodified]: the KM (H3 peptide) of methyltransferase activity without WRAD, saturating SAM was found to be 430 µM in experiment [1] and 251 µM in experiment [2].
